Measured values as given in patent US20210189007A1 (BOARD OF REGENTS OF THE UNIVERSITY OF OKLAHOMA, published 2021).

Molecular target: T1, DCLK1 isoform 4 purified protein (human, UniProt O15075 314-740)
T1 construct: Purified protein used in Western blot and ELISA; also called Doublecortin-like kinase 1 isoform 4; DCLK1 purified protein
T1 sequence: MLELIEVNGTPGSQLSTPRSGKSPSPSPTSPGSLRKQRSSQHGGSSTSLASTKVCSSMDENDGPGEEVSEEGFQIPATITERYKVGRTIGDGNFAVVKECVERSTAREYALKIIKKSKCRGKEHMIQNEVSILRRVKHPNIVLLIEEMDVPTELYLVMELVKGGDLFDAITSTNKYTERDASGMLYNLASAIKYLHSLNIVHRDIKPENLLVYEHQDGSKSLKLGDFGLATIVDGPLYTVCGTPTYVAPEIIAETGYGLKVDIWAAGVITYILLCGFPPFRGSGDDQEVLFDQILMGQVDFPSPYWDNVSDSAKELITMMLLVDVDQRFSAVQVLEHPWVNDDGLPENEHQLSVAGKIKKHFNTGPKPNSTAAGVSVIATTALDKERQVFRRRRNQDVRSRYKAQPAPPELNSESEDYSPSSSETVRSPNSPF
Assay: Western blot on purified protein

binding result: binds
B1: CBT-15A monoclonal antibody (antibody, V domains shown)
VH: DVKLVESGGGLVKLGGSLKLSCAASGFTFSSYYMSWVRQTPEKRLELVAAINSNGGSTYYPDTVKGRFTISRDNAKNTLYLQMSSLKSEDTALYYCARHGGNYWYFDVWGAGTTVTVSS
VL: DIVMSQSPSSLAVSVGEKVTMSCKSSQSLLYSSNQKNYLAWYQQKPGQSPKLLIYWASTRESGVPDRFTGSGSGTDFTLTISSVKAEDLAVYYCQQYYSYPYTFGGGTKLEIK
notes: Mouse hybridoma antibody raised against KLH-linked immunogen no; also called CBT-15A mAB; CBT-15 mAB (A)
